# Assays:
# Assay in all cases: IEDB peptide-MHC binding, cellular MHC/competitive/fluorescence; ≥ and ≤ were set here for values at or beyond the usual limits of such assays
# HLA-A*02:02 = details: source organism: Human papillomavirus 16
# HLA-A*02:03 = details: source organism: Human papillomavirus 16
# HLA-A*02:04 = target: HLA-A*02:04
# HLA-A*02:05 = details: source organism: Human papillomavirus 16
# HLA-A*02:06 = details: source organism: Human papillomavirus 16
# [1] = source organism: Human papillomavirus 16
Sequence,IC50 (HLA-A*02:02) [µM],IC50 (HLA-A*02:03) [µM],IC50 (HLA-A*02:04; [1]) [µM],IC50 (HLA-A*02:05) [µM],IC50 (HLA-A*02:06) [µM],IC50 (HLA-A*02:04; source organism: Hepatitis B virus) [µM]
TLGIVCPI,4,2,4,≥ 20,28,
FLPSDFFPSV,,,,,,1
YMLDLQPETT,6,5,11,≥ 100,≥ 70,
